Earlier results, collected in patent US20200069786A1, “COMPOSITION AND PROCESS FOR PREPARING VACCINE” (TREOS BIO ZRT., priority 2018, published 2020).
Where two headings read alike, the source gives them in different places.

Test system: TSA
[1] = TSA expression rate in LUNG cancer

Molecule | TSA Expression Rate (ER) (LUNG) [%] | Expression Rate (ER) % [1] [%] | TSA Expression Rate (ER) (BREAST) [%] | other results
PTTG-1 (protein, UniProt O95997 2-202, looked up) Securin: ATLIYVDKENGEPGTRVVAKDGLKLGSGPSIKALDGRSQVSTPRFGKTFDAPPALPKATRKALGTVNRATEKSVKTKGPLKQKQPSFSAKKMTEKTVKAKSSVPASDDAYPEIEKFFPFNPLDFESFDLPEEHQIAHLPLSGVPLMILDEERELEKLFQLGPPSPVKMPSPPWESNLLQSPSSILSTLDVELPPVCCDIDI | 20 | – | – | –
CABYR (protein, UniProt O75952 1-493, looked up) Calcium-binding tyrosine …: MISSKPRLVVPYGLKTLLEGISRAVLKTNPSNINQFAAAYFQELTMYRGNTTMDIKDLVKQFHQIKVEKWSEGTTPQKKLECLKEPGKTSVESKVPTQMEKSTDTDEDNVTRTEYSDKTTQFPSVYAVPGTEQTEAVGGLSSKPATPKTTTPPSSPPPTAVSPEFAYVPADPAQLAAQMLGKVSSIHSDQSDVLMVDVATSMPVVIKEVPSSEAAEDVMVAAPLVCSGKVLEVQVVNQTSVHVDLGSQPKENEAEPSTASSVPLQDEQEPPAYDQAPEVTLQADIEVMSTVHISSVYNDVPVTEGVVYIEQLPEQIVIPFTDQVACLKENEQSKENEQSPRVSPKSVVEKTTSGMSKKSVESVKLAQLEENAKYSSVYMEAEATALLSDTSLKGQPEVPAQLLDAEGAIKIGSEKSLHLEVEITSIVSDNTGQEESGENSVPQEMEGKPVLSGEAAEAVHSGTSVKSSSGPFPPAPEGLTAPEIEPEGESTAE | – | 16 | – | Expression Rate (ER) % (TSA expression rate in Esophageal): 17%
CALR3 (protein, UniProt Q96L12 20-384, looked up) Calreticulin-3: TVYFQEEFLDGEHWRNRWLQSTNDSRFGHFRLSSGKFYGHKEKDKGLQTTQNGRFYAISARFKPFSNKGKTLVIQYTVKHEQKMDCGGGYIKVFPADIDQKNLNGKSQYYIMFGPDICGFDIKKVHVILHFKNKYHENKKLIRCKVDGFTHLYTLILRPDLSYDVKIDGQSIESGSIEYDWNLTSLKKETSPAESKDWEQTKDNKAQDWEKHFLDASTSKQSDWNGDLDGDWPAPMLQKPPYQDGLKPEGIHKDVWLHRKMKNTDYLTQYDLSEFENIGAIGLELWQVRSGTIFDNFLITDDEEYADNFGKATWGETKGPEREMDAIQAKEEMKKAREEEEEELLSGKINRHEHYFNQFHRRNEL | – | 9 | 0 | Expression Rate (ER) % (TSA expression rate in CRC): 16%; Expression Rate (ER) % (TSA expression rate in GASTRIC cancer): 40%; Expression Rate (ER) % (TSA expression rate in Kidney): 80%; Expression Rate (ER) % (TSA expression rate in MELANOMA): 44%
GAGE-7 (protein, UniProt O76087 1-117, looked up) G antigen 7: MSWRGRSTYYWPRPRRYVQPPEMIGPMRPEQFSDEVEPATPEEGEPATQRQDPAAAQEGEDEGASAGQGPKPEAHSQEQGHPQTGCECEDGPDGQEMDPPNPEEVKTPEEGEKQSQC | – | – | 31 | Expression Rate (ER) % (TSA expression rate in HEAD and NECK): 9%
COX6B2 (protein, UniProt Q6YFQ2 1-88, looked up) Cytochrome c oxidase subunit …: MLDVEAQEPPKGKWSTPPFDPRFPSQNQIRNCYQNFLDYHRCLKTRTRRGKSTQPCEYYFRVYHSLCPISWVESWNEQIKNGIFAGKI | 24 | – | – | –
SPAG6 (protein, UniProt O75602 1-509, looked up) Sperm-associated antigen 6: MSQRQVLQVFEQYQKARTQFVQMVAELATRPQNIETLQNAGVMSLLRTLLLDVVPTIQQTAALALGRLANYNDDLAEAVVKCDILPQLVYSLAEQNRFYKKAAAFVLRAVGKHSPQLAQAIVDCGALDTLVICLEDFDPGVKEAAAWALRYIARHNAELSQAVVDAGAVPLLVLCIQEPEIALKRIAASALSDIAKHSPELAQTVVDAGAVAHLAQMILNPDAKLKHQILSALSQVSKHSVDLAEMVVEAEIFPVVLTCLKDKDEYVKKNASTLIREIAKHTPELSQLVVNAGGVAAVIDCIGSCKGNTRLPGIMMLGYVAAHSENLAMAVIISKGVPQLSVCLSEEPEDHIKAAAAWALGQIGRHTPEHARAVAVTNTLPVLLSLYMSTESSEDLQVKSKKAIKNILQKCTYLPALEPFLYDAPPNILKHVVGQFSKVLPHDSKARRLFVTSGGLKKVQEIKAEPGSLLQEYINSINSCYPEEIVRYYSPGYSDTLLQRVDSYQPLNN | 29 | – | 21 | –
